Test results taken from patent publication US7067474B1, “Agents for treating human illnesses based on β-catenin, and the production and use thereof” (Max-Delbruck-Centrum fur Molekulare Medizin, priority 1998, dated 2006).
Residue numbers refer to the chain shown, from its start.

Assays:
[1] = target: T1, human β-catenin (Leu218-Leu781) mutant Phe 253 to alanine, Gal-4 activation domain fusion (human, UniProt P35222 218-781); test: yeast 2-hybrid; - means 60-100% of the wild type interaction
T1 sequence: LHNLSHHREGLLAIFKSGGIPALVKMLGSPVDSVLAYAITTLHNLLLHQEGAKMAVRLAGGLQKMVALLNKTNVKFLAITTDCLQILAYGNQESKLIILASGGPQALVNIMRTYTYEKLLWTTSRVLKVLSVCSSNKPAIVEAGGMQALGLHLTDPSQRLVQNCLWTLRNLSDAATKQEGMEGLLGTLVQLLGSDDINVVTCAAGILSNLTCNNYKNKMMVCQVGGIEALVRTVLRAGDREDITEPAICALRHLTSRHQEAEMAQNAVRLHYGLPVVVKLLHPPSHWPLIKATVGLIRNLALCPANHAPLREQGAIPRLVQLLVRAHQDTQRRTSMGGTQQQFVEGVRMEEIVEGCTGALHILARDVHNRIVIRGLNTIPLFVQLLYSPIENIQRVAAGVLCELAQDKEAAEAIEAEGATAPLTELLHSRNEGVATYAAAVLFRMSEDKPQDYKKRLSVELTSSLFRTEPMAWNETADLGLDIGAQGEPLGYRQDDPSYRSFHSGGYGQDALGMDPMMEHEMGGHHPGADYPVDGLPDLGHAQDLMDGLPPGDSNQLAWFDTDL

[2] = target: T2, human β-catenin (Leu218-Leu781) mutant Arg 457 to alanine, Gal-4 activation domain fusion (human, UniProt P35222 218-781); test: as above
T2 sequence: T1 sequence with A36F, R240A

binding result [1]: binds
binding result [2]: binds
B1: LEF-1 amino acids 1-99 fused to Lex-A (vector BTM 116) (other, UniProt P0A7C2 1-202, looked up)
chain: MKALTARQQEVFDLIRDHISQTGMPPTRAEIAQRLGFRSPNAAEEHLKALARKGVIEIVSGASRGIRLLQEEEEGLPLVGRVAAGEPLLAQQHIEGHYQVDPSLFKPNADFLLRVSGMSMKDIGIMDGDLLAVHKTQDVRNGQVVVARIDDEVTVKRLKKQGNKVELLPENSEFKPIVVDLRQQSFTIEGLAVGVIRNGDWLMPQLSGGGGGGDPELCATDEMIPFKDEGDPQKEKIFAEISHPEEEGDLADIKSSLVNESEIIPASNGHEVVRQAPSSQEPYHDKAREHPDEGKHPDGGL
notes: Order of the fusion follows the vector; also called LEF-1/TCF-4
